{"source": "patent US20190381171A1", "about": "“CO-USE OF ANTI-BCMA ANTIBODY AND ANTIBODY-COUPLED T CELL RECEPTOR (ACTR) IN CANCER THERAPY AND B CELL DISORDERS” (UNUM THERAPEUTICS INC., priority 2017, published 2019)", "molecules": {"B1": {"name": "cSG16.45SEA: afucosylated (SEA) version of the chimeric SG16.45 anti-BCMA antibody (antibody, V domains shown)", "VH": "EVQLVESGGGLVQPGRSLKLSCVASGFTFNDHWMTWIRQAPGRGLEWISSITNTGGATYYLDSVKGRFTISRDNAKSTLYLQMNSLRSEDTATYYCTSPGLYFDYWGQGVMVTVSS", "VL": "EIVLTQSPTTTAASPGEKVTITCLATSSVSVMYWYQHKSGASPKLLIYSTSSLASGVPDRFSGSGSGTSYSLTINTMEAEDAATYYCHQWSSDPPTFGSGTKLEIKR"}}, "system": "NCI-H929 target cells", "assay": "ACTR T-cell cytokine release (IFNγ, IL2; Meso Scale Discovery) in co-culture with target cells and antibody", "type": "cell-based, human", "conditions": "T-cells expressing ACTR variant SEQ ID NO: 1, E:T 4:1, 24 hours, increasing antibody concentration (FIG. 4 chimeric, FIG. 9 humanized)", "experimental": "T-cells expressing ACTR variant SEQ ID NO: 1 (effector; E) and target cells (target; T) were incubated at a 4:1, effector-to-target ratio (120,000 T cells; 30,000 target cells) with increasing concentrations of various chimeric antibodies in a 200-μL reaction volume in RPMI 1640 media supplemented with 10% fetal bovine serum. In FIG. 4, the chimeric antibodies included fucosylated and afucosylated (SEA) versions of the SG16.17 and SG16.45 anti-BCMA antibodies at a concentration range of 100-0.0005 μg/mL. In FIG. 9, humanized afucosylated (SEA) SG16.17 antibody was used at a concentration range of 3.8-0.002 μg/mL. […] Supernatants were subsequently analyzed for IFNγ and IL2 using the Meso Scale Discovery V-Plex Human IFN-γ Kit (K151QOD-4) and V-Plex Human IL-2 Kit (K151QQD-4). Briefly, the Proinflammatory Calibrator Blend, Detection Antibody Solution, and Read Buffer were prepared according to manufacturer protocols. […] Read Buffer (150 μL) was added to the plate and the plates were run on the MSD Quickplex SQ 120.\nFor these experiments, BCMA+ HER2− NCI− H929 and BCMA− HER2+ SKBR3 target cells were used. […] Supernatants were subsequently analyzed for IFNγ using the Meso Scale Discovery V-Plex Human IFN-γ Kit (K151QOD-4). Briefly, the Proinflammatory Calibrator Blend, Detection Antibody Solution, and Read Buffer were prepared according to manufacturer protocols. […]"}
{"molecule": "B1", "values": [{"measurement": "ACTR T-cell IFNγ and IL2 release", "value": "increased potency in cytokine release when compared to their fucosylated counterparts"}]}
